{
  "source": "patent US20040009897A1",
  "key": {"[1]": {"molecular_target": "human recombinant soluble CD4 (human) (UniProt P01730)", "assay": "competitive ELISA on rsCD4; competitor mAb B4-HRP; unlabelled mAb B4 at 20 µg/mL, positive control run with week 9 sera"}, "[2]": {"molecular_target": "human recombinant soluble CD4 (human) (UniProt P01730)", "assay": "competitive ELISA on rsCD4; competitor mAb B4-HRP; unlabelled mAb B4 at 2.0 µg/mL, positive control run with week 9 sera"}, "[3]": {"molecular_target": "human recombinant soluble CD4 (human) (UniProt P01730)", "assay": "competitive ELISA on rsCD4; competitor mAb B4-HRP; unlabelled mAb B4 at 20 µg/mL, positive control run with week 11 sera"}, "[4]": {"molecular_target": "human recombinant soluble CD4 (human) (UniProt P01730)", "assay": "competitive ELISA on rsCD4; competitor mAb B4-HRP; unlabelled mAb B4 at 20 µg/mL, positive control run with week 17 sera"}, "[5]": {"molecular_target": "human recombinant soluble CD4 (human) (UniProt P01730)", "assay": "competitive ELISA on rsCD4; competitor mAb B4-HRP; unlabelled mAb B4 at 2.0 µg/mL, positive control run with week 11 sera"}, "[6]": {"molecular_target": "human recombinant soluble CD4 (human) (UniProt P01730)", "assay": "competitive ELISA on rsCD4; competitor mAb B4-HRP; unlabelled mAb B4 at 2.0 µg/mL, positive control run with week 17 sera"}},
  "data": [
    {"substance": "mAb B4 (anti-binding site monoclonal antibody), unlabelled, purified", "values": [
      {"measurement": "% Inhibition", "setting": "[1]", "result": 63, "unit": "%"},
      {"measurement": "% Inhibition", "setting": "[2]", "result": 23.5, "unit": "%"},
      {"measurement": "% Inhibition", "setting": "[3]", "result": 63, "unit": "%"},
      {"measurement": "% Inhibition", "setting": "[4]", "result": 48.7, "unit": "%"},
      {"measurement": "% Inhibition", "setting": "[5]", "result": 11.7, "unit": "%"},
      {"measurement": "% Inhibition", "setting": "[6]", "result": 11.7, "unit": "%"}
    ]}
  ]
}
